Results: publication PMC4204775 (Human Molecular Genetics, 2014)

T1: AGT-Ma (S81L-Ma homodimer) (Homo sapiens, UniProt P21549, S81L)
T1 sequence (P21549 1-392 S81L): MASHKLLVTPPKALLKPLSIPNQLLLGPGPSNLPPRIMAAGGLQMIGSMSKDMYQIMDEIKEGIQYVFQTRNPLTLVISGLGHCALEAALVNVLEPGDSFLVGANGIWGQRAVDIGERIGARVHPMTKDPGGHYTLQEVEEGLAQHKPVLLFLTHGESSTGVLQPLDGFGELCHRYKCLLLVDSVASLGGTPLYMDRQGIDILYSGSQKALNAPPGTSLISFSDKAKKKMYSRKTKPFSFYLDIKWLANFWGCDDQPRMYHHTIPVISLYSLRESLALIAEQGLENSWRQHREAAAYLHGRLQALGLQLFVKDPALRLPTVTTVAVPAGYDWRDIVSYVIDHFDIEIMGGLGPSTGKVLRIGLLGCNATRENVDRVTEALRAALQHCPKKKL


Key:
[1] = target: T1, AGT-Ma (S81L-Ma homodimer); test: CD signal change at […] nm on PLP titration of apoenzyme; type: binding
[2] = substrate: C[C@H](N)C(=O)O; test: pyruvate formation, lactate dehydrogenase-coupled spectrophotometric assay; type: biochemical, Homo sapiens; settings: saturating glyoxylate, 200 μM PLP, 100 mM potassium phosphate, 25°C
[3] = substrate: O=CC(=O)O; test: as above; type: biochemical, Homo sapiens; settings: saturating L-alanine, 200 μM PLP, 100 mM potassium phosphate, 25°C

Molecule | Kd [1] [µM] | kcat [2] [s⁻¹] | Km [3] [µM] | kcat [3] [s⁻¹]
Cc1ncc(COP(=O)(O)O)c(C=O)c1O [PLP] | 17 ± 3 |  |  | 
AGT-Ma (S81L-Ma homodimer) (Homo sapiens; S81L) (protein) MASHKLLVTPPKALLKPLSIPNQLLLGPGPSNLPPRIMAAGGLQMIGSMSKDMYQIMDEIKEGIQYVFQTRNPLTLVISGLGHCALEAALVNVLEPGDSFLVGANGIWGQRAVDIGERIGARVHPMTKDPGGHYTLQEVEEGLAQHKPVLLFLTHGESSTGVLQPLDGFGELCHRYKCLLLVDSVASLGGTPLYMDRQGIDILYSGSQKALNAPPGTSLISFSDKAKKKMYSRKTKPFSFYLDIKWLANFWGCDDQPRMYHHTIPVISLYSLRESLALIAEQGLENSWRQHREAAAYLHGRLQALGLQLFVKDPALRLPTVTTVAVPAGYDWRDIVSYVIDHFDIEIMGGLGPSTGKVLRIGLLGCNATRENVDRVTEALRAALQHCPKKKL |  | 13.9 ± 0.9 | 160 ± 20 | 13.9 ± 0.9
